Measurements reported in PMC11873932.

Target: Protein Serine Kinase H1 (PSKH1), recombinant full-length, wild type (human) (UniProt P11801)
Sequence (P11801 whole entry): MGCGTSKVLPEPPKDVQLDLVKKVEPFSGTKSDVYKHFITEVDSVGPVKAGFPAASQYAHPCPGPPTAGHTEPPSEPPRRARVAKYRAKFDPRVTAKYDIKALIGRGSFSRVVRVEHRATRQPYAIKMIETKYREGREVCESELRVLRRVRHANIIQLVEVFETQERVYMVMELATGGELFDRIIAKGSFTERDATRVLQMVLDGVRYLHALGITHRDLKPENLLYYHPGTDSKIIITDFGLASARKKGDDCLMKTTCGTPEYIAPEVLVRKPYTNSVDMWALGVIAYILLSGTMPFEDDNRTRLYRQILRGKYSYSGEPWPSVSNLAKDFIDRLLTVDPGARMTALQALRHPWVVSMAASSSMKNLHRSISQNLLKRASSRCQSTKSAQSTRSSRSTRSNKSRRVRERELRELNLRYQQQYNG

half-maximal activation (EC50) of HA-tagged PSKH1 (10 ng) kinase activity, titration of CaM 0-1,000 nM, radiometric assay: 58.7 nM | radiometric kinase assay (ADR1 peptide phosphorylation) of HA-tagged PSKH1 (10 ng) with Ca2+-CaM (1 uM): 10 fold
Substance: Calmodulin, recombinant (His6-Calmodulin) (from UniProt P0DP23 1-149) (natural protein)
